# Target: MRE11 (human) (UniProt P49959)
# Test: cryo-EM structure
# Sequence of MRE11 (human) (P49959 whole entry): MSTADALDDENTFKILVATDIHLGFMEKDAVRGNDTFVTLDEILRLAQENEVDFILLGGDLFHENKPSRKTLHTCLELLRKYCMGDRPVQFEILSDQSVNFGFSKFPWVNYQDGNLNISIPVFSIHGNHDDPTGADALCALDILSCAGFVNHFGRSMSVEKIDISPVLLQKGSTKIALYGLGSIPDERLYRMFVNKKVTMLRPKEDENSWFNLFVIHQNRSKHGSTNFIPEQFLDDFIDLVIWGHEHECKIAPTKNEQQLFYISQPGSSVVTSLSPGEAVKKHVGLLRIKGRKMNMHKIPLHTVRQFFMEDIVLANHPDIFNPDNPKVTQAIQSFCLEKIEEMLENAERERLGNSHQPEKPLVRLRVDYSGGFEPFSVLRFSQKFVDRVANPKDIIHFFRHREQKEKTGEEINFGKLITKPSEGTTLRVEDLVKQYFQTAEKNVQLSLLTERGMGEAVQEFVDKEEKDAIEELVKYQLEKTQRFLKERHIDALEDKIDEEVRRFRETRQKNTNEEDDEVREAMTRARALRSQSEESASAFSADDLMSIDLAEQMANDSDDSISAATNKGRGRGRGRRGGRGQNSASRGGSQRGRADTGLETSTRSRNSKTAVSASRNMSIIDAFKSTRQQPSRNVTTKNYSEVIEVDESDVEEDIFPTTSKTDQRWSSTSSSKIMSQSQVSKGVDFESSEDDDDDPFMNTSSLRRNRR
# Sequence of MRE11 (P49959 whole entry): as above
# Sequence of NBS1 (O60934 whole entry): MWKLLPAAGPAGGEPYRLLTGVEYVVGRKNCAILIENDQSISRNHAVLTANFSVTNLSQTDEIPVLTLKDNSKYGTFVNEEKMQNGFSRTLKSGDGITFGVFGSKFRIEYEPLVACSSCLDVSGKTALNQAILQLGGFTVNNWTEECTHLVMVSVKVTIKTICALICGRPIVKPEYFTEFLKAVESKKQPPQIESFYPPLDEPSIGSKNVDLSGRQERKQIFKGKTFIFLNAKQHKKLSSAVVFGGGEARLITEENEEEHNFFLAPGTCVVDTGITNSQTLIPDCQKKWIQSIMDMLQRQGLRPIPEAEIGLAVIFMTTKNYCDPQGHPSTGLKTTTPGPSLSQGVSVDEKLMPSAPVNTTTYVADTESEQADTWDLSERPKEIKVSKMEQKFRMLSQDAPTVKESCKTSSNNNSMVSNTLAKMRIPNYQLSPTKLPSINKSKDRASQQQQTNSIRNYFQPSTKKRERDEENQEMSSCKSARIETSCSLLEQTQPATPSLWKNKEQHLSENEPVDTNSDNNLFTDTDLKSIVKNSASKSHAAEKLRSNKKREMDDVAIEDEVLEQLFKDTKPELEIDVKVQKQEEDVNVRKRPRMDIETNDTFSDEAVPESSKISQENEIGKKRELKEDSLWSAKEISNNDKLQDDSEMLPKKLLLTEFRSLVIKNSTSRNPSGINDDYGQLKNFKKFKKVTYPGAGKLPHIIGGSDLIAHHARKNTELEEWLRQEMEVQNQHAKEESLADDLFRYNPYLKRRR
stoichiometry N,stoichiometry N (NBS1 per MRE11 dimer),Substance
2,–,MRE11 (from UniProt P49959) (natural protein)
–,1,NBS1 (from UniProt O60934) (natural protein)
